Assay results as given in patent US20080081783A1 (published 2008).
Read-outs that look alike come from different tables or passages of the source. Bridge positions count the residues as written; N and C are the ends. Square brackets hold non-standard residues; d marks the D form. Ends that are not written are not given here. 1Nal = N[C@@H](Cc1cccc2ccccc12)C(=O)O; Sar = CNCC(=O)O

Assays:
[1] = molecular target: recombinant EPO-R (produced in Chinese Hamster Ovary cells as a fusion protein to a portion of the human … (human, UniProt P05187 490-506)); assay: competitive binding; the column head says only 'IC50'; taken as the AlphaQuest bead proximity assay against the biotinylated tracer SEQ ID NO: 4, by paragraph 206
[2] = molecular target: T1, Recombinant Human EPO R/Fc Chimera (human, UniProt P19235 25-250); assay: radioligand competition; competitor 125I-EPO; EPO R/Fc chimera captured on protein-G Sepharose
T1 construct: extracellular domain; Bought from R&D Systems, catalog number 963-ER; also called recombinant EPOr extracellular domain fused to the Fc portion of human IgG1; recombinant erythropoietin receptor; not shown: Fc portion of human IgG1
T1 sequence (looked up): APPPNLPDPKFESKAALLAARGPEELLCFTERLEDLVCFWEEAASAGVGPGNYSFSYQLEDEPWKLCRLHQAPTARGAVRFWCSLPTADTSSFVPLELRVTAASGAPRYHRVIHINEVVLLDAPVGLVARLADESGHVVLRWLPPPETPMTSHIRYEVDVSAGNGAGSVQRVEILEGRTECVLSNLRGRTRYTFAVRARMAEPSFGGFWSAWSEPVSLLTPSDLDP

[3] = molecular target: T2, human EPO-R (human, UniProt P19235 25-508); assay: cell-based or functional assay
T2 sequence (looked up): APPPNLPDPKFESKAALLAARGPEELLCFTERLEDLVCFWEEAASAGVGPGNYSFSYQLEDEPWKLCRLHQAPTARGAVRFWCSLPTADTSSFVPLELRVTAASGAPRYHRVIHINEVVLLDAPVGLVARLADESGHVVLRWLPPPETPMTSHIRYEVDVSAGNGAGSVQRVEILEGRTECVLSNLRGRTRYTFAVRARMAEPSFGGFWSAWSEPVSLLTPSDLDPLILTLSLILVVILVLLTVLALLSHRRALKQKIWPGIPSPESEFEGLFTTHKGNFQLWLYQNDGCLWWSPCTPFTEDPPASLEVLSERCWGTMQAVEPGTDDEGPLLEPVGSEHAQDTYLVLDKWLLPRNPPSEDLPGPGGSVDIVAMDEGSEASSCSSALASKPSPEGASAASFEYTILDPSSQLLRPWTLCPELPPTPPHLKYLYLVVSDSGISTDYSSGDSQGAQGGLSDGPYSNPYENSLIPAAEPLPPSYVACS

[4] = molecular target: T3, chimeric receptor comprising the extra-cellular portion of the human EPO receptor to the intra-cellular … (human, UniProt P19235 25-250; Q99062 651-836, limits assumed); assay: cell-based or functional assay
T3 sequence (looked up): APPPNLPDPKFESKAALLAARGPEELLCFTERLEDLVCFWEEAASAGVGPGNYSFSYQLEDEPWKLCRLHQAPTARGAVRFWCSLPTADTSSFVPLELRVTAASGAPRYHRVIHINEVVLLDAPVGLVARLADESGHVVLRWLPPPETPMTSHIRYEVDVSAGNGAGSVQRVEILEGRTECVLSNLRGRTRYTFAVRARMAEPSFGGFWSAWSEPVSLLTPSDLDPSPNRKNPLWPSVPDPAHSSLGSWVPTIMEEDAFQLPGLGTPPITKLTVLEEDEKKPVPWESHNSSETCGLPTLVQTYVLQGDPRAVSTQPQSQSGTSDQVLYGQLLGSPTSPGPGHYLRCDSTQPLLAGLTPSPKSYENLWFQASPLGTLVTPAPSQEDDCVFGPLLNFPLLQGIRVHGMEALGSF

[5] = molecular target: T2, human EPO-R; assay: cell-based or functional assay; remark: listed apart in the source
[6] = molecular target: T3, chimeric receptor comprising the …; assay: cell-based or functional assay; remark: listed apart in the source

B1: Peptide II (SEQ ID NO: 3) (peptide)
peptide: Ac-XGLYACHMGPIT[1Nal]VCQPLR[Sar]
modifications: disulfide 6-15 (inferred); not fully specified (residue 1); printed as (AcG)GLYACHMGPIT(1-nal)VCQPLR(MeG); also: homodimer, C-termini joined to alpha- and epsilon-amino groups of a lysine linker, PEG attached through a spacer, linkage and PEG size not readable
notes: What sets it apart from Peptide III (PEG linkage or size) stands only in drawing CHEM-US-00080
IC50 [1]: 0.11 nM

B2: Peptide I (SEQ ID NO: 2) (peptide)
peptide: Ac-XGLYACHMGPIT[1Nal]VCQPLR[Sar]K
modifications: disulfide 6-15; not fully specified (residues 1, 21); printed as (AcG)GLYACHMGPIT(1-nal)VCQPLR(MeG)K; also: homodimer joined by a branched tertiary amide linker on the epsilon-N of Lys21, PEG attached through a spacer, exact linker and PEG structure not readable
notes: The exact structure (linker, spacer, PEG size, carbamate or amide linkage) stands only in drawing CHEM-US-00099, which is not readable here
IC50 [2]: 0.111 nM
Proliferation EC50 [3]: 0.165 nM
Reporter EC50 [4]: 0.195 nM

B3: Peptide III (SEQ ID NO: 3) (peptide)
peptide: Ac-XGLYACHMGPIT[1Nal]VCQPLR[Sar]
modifications: disulfide 6-15; not fully specified (residue 1); printed as (AcG)GLYACHMGPIT(1-nal)VCQPLR(MeG); also: homodimer, C-termini joined to alpha- and epsilon-amino groups of a lysine linker, PEG attached through a spacer, linkage and PEG size not readable
Proliferation EC50 [5]: 72 nM
Reporter EC50 [6]: 0.15 nM
